Data from patent publication US20230357348A1 (AstraZeneca / MedImmune, published 2023).
Starred links: 1 amine or outer side, 2 acyl side, 3 side chain; linkers in the order of their positions; H or OH if unused. Non-standard residues stand in square brackets, D forms with d. Groups on a side chain read outwards from the residue. No end group written: not given here. *: point of attachment. C20 diacid = O=C(O)CCCCCCCCCCCCCCCCCCC(=O)*; C18 diacid = O=C(O)CCCCCCCCCCCCCCCCC(=O)*; γGlu = O=C(O)[C@H](CCC(=O)[*:2])N[*:1]; αMeF = C[C@](N)(Cc1ccccc1)C(=O)O; AEEA = NCCOCCOCC(=O)O; Aib = CC(C)(N)C(=O)O

How the values were obtained:
[1] = target: human glucagon receptor (hGCGR) (human, UniProt P47871 26-477); experiment: cell-based or functional assay
[2] = target: human GLP-1 receptor (hGLP-1R) (human, UniProt P43220 24-463); experiment: cell-based or functional assay

Chain of human glucagon receptor (hGCGR) (P47871 26-477): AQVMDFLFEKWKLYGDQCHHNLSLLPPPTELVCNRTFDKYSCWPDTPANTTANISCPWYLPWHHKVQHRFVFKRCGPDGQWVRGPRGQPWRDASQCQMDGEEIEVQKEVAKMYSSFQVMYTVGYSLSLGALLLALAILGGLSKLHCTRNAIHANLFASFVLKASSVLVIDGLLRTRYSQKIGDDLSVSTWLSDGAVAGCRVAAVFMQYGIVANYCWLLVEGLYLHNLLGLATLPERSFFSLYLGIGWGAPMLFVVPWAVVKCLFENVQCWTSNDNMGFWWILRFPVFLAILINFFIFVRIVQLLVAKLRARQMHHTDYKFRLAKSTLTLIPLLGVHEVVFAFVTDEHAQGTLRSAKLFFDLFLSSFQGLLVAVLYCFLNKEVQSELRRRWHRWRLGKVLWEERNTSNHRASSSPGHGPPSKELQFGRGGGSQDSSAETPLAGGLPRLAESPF

Row | Binder | hGluc-R EC50 (pM) [1] | hGLP-1R EC50 (pM) [2]
1 | H[Aib]QGTFTSDVSK[αMeF]LDKK([AEEA-AEEA-γGlu-C20 diacid])RARDFVRWLL[Aib]E-OH (N-terminus assumed; SMILES CC(C)C[C@H](NC(=O)[C@H](Cc1c[nH]c2ccccc12)NC(=O)[C@H](CCCNC(=N)N)NC(=O)[C@@H](NC(=O)[C@H](Cc1ccccc1)NC(=O)[C@H](CC(=O)O)NC(=O)[C@H](CCCNC(=N)N)NC(=O)[C@H](C)NC(=O)[C@H](CCCNC(=N)N)NC(=O)[C@H](CCCCNC(=O)COCCOCCNC(=O)COCCOCCNC(=O)CC[C@H](NC(=O)CCCCCCCCCCCCCCCCCCC(=O)O)C(=O)O)NC(=O)[C@H](CCCCN)NC(=O)[C@H](CC(=O)O)NC(=O)[C@H](CC(C)C)NC(=O)[C@](C)(Cc1ccccc1)NC(=O)[C@H](CCCCN)NC(=O)[C@H](CO)NC(=O)[C@@H](NC(=O)[C@H](CC(=O)O)NC(=O)[C@H](CO)NC(=O)[C@@H](NC(=O)[C@H](Cc1ccccc1)NC(=O)[C@@H](NC(=O)CNC(=O)[C@H](CCC(N)=O)NC(=O)C(C)(C)NC(=O)[C@@H](N)Cc1c[nH]cn1)[C@@H](C)O)[C@@H](C)O)C(C)C)C(C)C)C(=O)N[C@@H](CC(C)C)C(=O)NC(C)(C)C(=O)N[C@@H](CCC(=O)O)C(=O)O) [Peptide 440] | 81 pM | 154 pM
2 | H[Aib]QGTFTSDVSK[αMeF]LDKK([AEEA-AEEA-γGlu-C20 diacid])RAQDFVRWLL[Aib]E-NH2 (N-terminus assumed; SMILES CC(C)C[C@H](NC(=O)[C@H](Cc1c[nH]c2ccccc12)NC(=O)[C@H](CCCNC(=N)N)NC(=O)[C@@H](NC(=O)[C@H](Cc1ccccc1)NC(=O)[C@H](CC(=O)O)NC(=O)[C@H](CCC(N)=O)NC(=O)[C@H](C)NC(=O)[C@H](CCCNC(=N)N)NC(=O)[C@H](CCCCNC(=O)COCCOCCNC(=O)COCCOCCNC(=O)CC[C@H](NC(=O)CCCCCCCCCCCCCCCCCCC(=O)O)C(=O)O)NC(=O)[C@H](CCCCN)NC(=O)[C@H](CC(=O)O)NC(=O)[C@H](CC(C)C)NC(=O)[C@](C)(Cc1ccccc1)NC(=O)[C@H](CCCCN)NC(=O)[C@H](CO)NC(=O)[C@@H](NC(=O)[C@H](CC(=O)O)NC(=O)[C@H](CO)NC(=O)[C@@H](NC(=O)[C@H](Cc1ccccc1)NC(=O)[C@@H](NC(=O)CNC(=O)[C@H](CCC(N)=O)NC(=O)C(C)(C)NC(=O)[C@@H](N)Cc1c[nH]cn1)[C@@H](C)O)[C@@H](C)O)C(C)C)C(C)C)C(=O)N[C@@H](CC(C)C)C(=O)NC(C)(C)C(=O)N[C@@H](CCC(=O)O)C(N)=O) [Peptide 441] | 72.8 pM | 62.7 pM
3 | H[Aib]QGTFTSDVSK[αMeF]LDKK([AEEA-AEEA-γGlu-C18 diacid])RAQDFVRWLLE[Aib]G-NH2 (N-terminus assumed; SMILES CC(C)C[C@H](NC(=O)[C@H](Cc1c[nH]c2ccccc12)NC(=O)[C@H](CCCNC(=N)N)NC(=O)[C@@H](NC(=O)[C@H](Cc1ccccc1)NC(=O)[C@H](CC(=O)O)NC(=O)[C@H](CCC(N)=O)NC(=O)[C@H](C)NC(=O)[C@H](CCCNC(=N)N)NC(=O)[C@H](CCCCNC(=O)COCCOCCNC(=O)COCCOCCNC(=O)CC[C@H](NC(=O)CCCCCCCCCCCCCCCCC(=O)O)C(=O)O)NC(=O)[C@H](CCCCN)NC(=O)[C@H](CC(=O)O)NC(=O)[C@H](CC(C)C)NC(=O)[C@](C)(Cc1ccccc1)NC(=O)[C@H](CCCCN)NC(=O)[C@H](CO)NC(=O)[C@@H](NC(=O)[C@H](CC(=O)O)NC(=O)[C@H](CO)NC(=O)[C@@H](NC(=O)[C@H](Cc1ccccc1)NC(=O)[C@@H](NC(=O)CNC(=O)[C@H](CCC(N)=O)NC(=O)C(C)(C)NC(=O)[C@@H](N)Cc1c[nH]cn1)[C@@H](C)O)[C@@H](C)O)C(C)C)C(C)C)C(=O)N[C@@H](CC(C)C)C(=O)N[C@@H](CCC(=O)O)C(=O)NC(C)(C)C(=O)NCC(N)=O) [Peptide 442] | 35.8 pM | 19.1 pM
4 | H[Aib]QGTFTSDVSK[αMeF]LDKK([AEEA-AEEA-γGlu-C18 diacid])RARDFVRWLL[Aib]E-NH2 (N-terminus assumed; SMILES CC(C)C[C@H](NC(=O)[C@H](Cc1c[nH]c2ccccc12)NC(=O)[C@H](CCCNC(=N)N)NC(=O)[C@@H](NC(=O)[C@H](Cc1ccccc1)NC(=O)[C@H](CC(=O)O)NC(=O)[C@H](CCCNC(=N)N)NC(=O)[C@H](C)NC(=O)[C@H](CCCNC(=N)N)NC(=O)[C@H](CCCCNC(=O)COCCOCCNC(=O)COCCOCCNC(=O)CC[C@H](NC(=O)CCCCCCCCCCCCCCCCC(=O)O)C(=O)O)NC(=O)[C@H](CCCCN)NC(=O)[C@H](CC(=O)O)NC(=O)[C@H](CC(C)C)NC(=O)[C@](C)(Cc1ccccc1)NC(=O)[C@H](CCCCN)NC(=O)[C@H](CO)NC(=O)[C@@H](NC(=O)[C@H](CC(=O)O)NC(=O)[C@H](CO)NC(=O)[C@@H](NC(=O)[C@H](Cc1ccccc1)NC(=O)[C@@H](NC(=O)CNC(=O)[C@H](CCC(N)=O)NC(=O)C(C)(C)NC(=O)[C@@H](N)Cc1c[nH]cn1)[C@@H](C)O)[C@@H](C)O)C(C)C)C(C)C)C(=O)N[C@@H](CC(C)C)C(=O)NC(C)(C)C(=O)N[C@@H](CCC(=O)O)C(N)=O) [Peptide 443] | 22.4 pM | 20.6 pM
5 | H[Aib]QGTFTSDVSK[αMeF]LETKRARDFVQWLLE[Aib]G-OH (not fully specified (residue 17)) [Peptide 444] | 1760 pM | 247 pM
6 | H[Aib]QGTFTSDVSK[αMeF]LETK([AEEA-AEEA-γGlu-C18 diacid])RARDFVQWLLE[Aib]G-OH [Peptide 445] | 684 pM | 33 pM
7 | H[Aib]QGTFTSDVSK[αMeF]LDRK([AEEA-AEEA-γGlu-γGlu-C18 diacid])RAQDFVRWLV[Aib]E-NH2 (N-terminus assumed; SMILES CC(C)C[C@H](NC(=O)[C@H](Cc1c[nH]c2ccccc12)NC(=O)[C@H](CCCNC(=N)N)NC(=O)[C@@H](NC(=O)[C@H](Cc1ccccc1)NC(=O)[C@H](CC(=O)O)NC(=O)[C@H](CCC(N)=O)NC(=O)[C@H](C)NC(=O)[C@H](CCCNC(=N)N)NC(=O)[C@H](CCCCNC(=O)COCCOCCNC(=O)COCCOCCNC(=O)CC[C@H](NC(=O)CC[C@H](NC(=O)CCCCCCCCCCCCCCCCC(=O)O)C(=O)O)C(=O)O)NC(=O)[C@H](CCCNC(=N)N)NC(=O)[C@H](CC(=O)O)NC(=O)[C@H](CC(C)C)NC(=O)[C@](C)(Cc1ccccc1)NC(=O)[C@H](CCCCN)NC(=O)[C@H](CO)NC(=O)[C@@H](NC(=O)[C@H](CC(=O)O)NC(=O)[C@H](CO)NC(=O)[C@@H](NC(=O)[C@H](Cc1ccccc1)NC(=O)[C@@H](NC(=O)CNC(=O)[C@H](CCC(N)=O)NC(=O)C(C)(C)NC(=O)[C@@H](N)Cc1c[nH]cn1)[C@@H](C)O)[C@@H](C)O)C(C)C)C(C)C)C(=O)N[C@H](C(=O)NC(C)(C)C(=O)N[C@@H](CCC(=O)O)C(N)=O)C(C)C) [Peptide 446] | 366 pM | 32.9 pM
8 | H[Aib]QGTFTSDVSK[αMeF]LDRK([AEEA-AEEA-γGlu-γGlu-C20 diacid])RAQDFVRWLV[Aib]E-NH2 (N-terminus assumed; SMILES CC(C)C[C@H](NC(=O)[C@H](Cc1c[nH]c2ccccc12)NC(=O)[C@H](CCCNC(=N)N)NC(=O)[C@@H](NC(=O)[C@H](Cc1ccccc1)NC(=O)[C@H](CC(=O)O)NC(=O)[C@H](CCC(N)=O)NC(=O)[C@H](C)NC(=O)[C@H](CCCNC(=N)N)NC(=O)[C@H](CCCCNC(=O)COCCOCCNC(=O)COCCOCCNC(=O)CC[C@H](NC(=O)CC[C@H](NC(=O)CCCCCCCCCCCCCCCCCCC(=O)O)C(=O)O)C(=O)O)NC(=O)[C@H](CCCNC(=N)N)NC(=O)[C@H](CC(=O)O)NC(=O)[C@H](CC(C)C)NC(=O)[C@](C)(Cc1ccccc1)NC(=O)[C@H](CCCCN)NC(=O)[C@H](CO)NC(=O)[C@@H](NC(=O)[C@H](CC(=O)O)NC(=O)[C@H](CO)NC(=O)[C@@H](NC(=O)[C@H](Cc1ccccc1)NC(=O)[C@@H](NC(=O)CNC(=O)[C@H](CCC(N)=O)NC(=O)C(C)(C)NC(=O)[C@@H](N)Cc1c[nH]cn1)[C@@H](C)O)[C@@H](C)O)C(C)C)C(C)C)C(=O)N[C@H](C(=O)NC(C)(C)C(=O)N[C@@H](CCC(=O)O)C(N)=O)C(C)C) [Peptide 447] | 667 pM | 170 pM
9 | H[Aib]QGTFTSDVSK[αMeF]LDKK([AEEA-AEEA-γGlu-γGlu-C18 diacid])RARDFVRWLL[Aib]E-OH (N-terminus assumed; SMILES CC(C)C[C@H](NC(=O)[C@H](Cc1c[nH]c2ccccc12)NC(=O)[C@H](CCCNC(=N)N)NC(=O)[C@@H](NC(=O)[C@H](Cc1ccccc1)NC(=O)[C@H](CC(=O)O)NC(=O)[C@H](CCCNC(=N)N)NC(=O)[C@H](C)NC(=O)[C@H](CCCNC(=N)N)NC(=O)[C@H](CCCCNC(=O)COCCOCCNC(=O)COCCOCCNC(=O)CC[C@H](NC(=O)CC[C@H](NC(=O)CCCCCCCCCCCCCCCCC(=O)O)C(=O)O)C(=O)O)NC(=O)[C@H](CCCCN)NC(=O)[C@H](CC(=O)O)NC(=O)[C@H](CC(C)C)NC(=O)[C@](C)(Cc1ccccc1)NC(=O)[C@H](CCCCN)NC(=O)[C@H](CO)NC(=O)[C@@H](NC(=O)[C@H](CC(=O)O)NC(=O)[C@H](CO)NC(=O)[C@@H](NC(=O)[C@H](Cc1ccccc1)NC(=O)[C@@H](NC(=O)CNC(=O)[C@H](CCC(N)=O)NC(=O)C(C)(C)NC(=O)[C@@H](N)Cc1c[nH]cn1)[C@@H](C)O)[C@@H](C)O)C(C)C)C(C)C)C(=O)N[C@@H](CC(C)C)C(=O)NC(C)(C)C(=O)N[C@@H](CCC(=O)O)C(=O)O) [Peptide 448] | 29 pM | 53.1 pM
